Reference: patent publication US20240025993A1, “CD19 BINDING MOLECULES AND USES THEREOF” (NOVARTIS AG, priority 2020, published 2024)

Assays:
human FcγR1A = human FcγR1A (Homo sapiens, UniProt P12314); test: SPR binding of Fc modified anti-CD3 IgG1 antibodies (Example 34); conditions: anti-CD3 IgG1 antibody immobilized
Method: Surface plasmon resonance (SPR) experiments were performed to analyze the interaction of human activating receptors FcγR1A, FcγR3A (V158) and human C1q with IgG1 WT and antibody-Fc variants. Binding kinetics and their relative binding affinities were explored. The binding affinity is an important characteristic of an interaction between an antibody and an antigen. The equilibrium dissociation constant (KD) defines how strong the interaction is and therefore how much antibody-antigen complex is formed at equilibrium.
The knowledge of the antibody characteristics is not only essential during selection of the best therapeutic antibody candidate, but also important to understand the in vivo behavior and potentially predict cellular immune responses. […] Binding to human C1q was evaluated. […] SPR measurements were measured on a Biacore T200 (GE-Healthcare Life Sciences) controlled by Biacore T200 control software version 2.0.1. […]
The antibodies were covalently immobilized on a CM5 sensor chip whereas Fc gamma receptors or human C1q served as analytes in solution (FIG. 38). […] Zero concentration samples (blank runs) were measured for both methods to allow double-referencing during data evaluation.
Data were evaluated using the Biacore T200 evaluation software. […] In addition, the maximum response reached during the experiment was monitored. […]

[1] = Differential scanning calorimetry, melting temperature of Fc modified anti-CD3 antibodies (Example 35); format: physicochemical; conditions: DSC, 1 mg/ml in PBS pH 7.4, anti-CD3 IgG1 Fc variants
Method: Calorimetric measurements were carried out on a differential scanning micro calorimeter (Nano DSC, TA instruments). The cell volume was 0.5 ml and the heating rate was 1° C./min. All proteins were used at a concentration of 1 mg/m in PBS (pH 7.4). The molar heat capacity of each protein was estimated by comparison with duplicate samples containing identical buffer from which the protein had been omitted. The partial molar heat capacities and melting curves were analyzed using standard procedure. Thermograms were baseline corrected and concentration normalized.

[2] = Aggregation propensity (% HMW) by analytical SEC of IgG1 anti-CD3 antibody and Fc variants (Example 35); format: physicochemical; conditions: PBS pH 7.4, anti-CD3 antibodies
Method: Size exclusion chromatography measurements were performed to evaluate the aggregation propensity (% HMW) of IgG1 antibody and Fc modified derivatives. The produced and purified anti CD3 antibodies were applied to an analytical size exclusion chromatography column (SEC 200, GE Healthcare), equilibrated with PBS buffer pH 7.4.

[3] = test system: T cells co-cultured with OCI-LY-19, Karpas422 or Toledo target cells; test: TBM and BBM mediated T cell proliferation (Example 20); format: cell-based, human; conditions: in the presence of OCI-LY-19 and Toledo cells; E:T 1:3, 96 hrs
Method: Briefly, OCI-LY-19, Karpas422, and Toledo target cells stably expressing firefly luciferase were plated in a 96 well plate in T Cell Media (TCM) (RPMI-1640, ThermoFisher Scientific, Cat #11875-085), 10% FBS (Seradigm, Cat #1500-500), 1% L-Glutamine (Thermo Fisher Scientific, Cat #25830-081), 1% Non Essential Amino Acids (Thermo Fisher Scientific, Cat #11140-050),1% Pen/Strep (Thermo Fisher Scientific, Cat #15070063), 1% HEPES (Thermo Fisher Scientific, Cat #15630080), Sodium Pyruvate (Thermo Fisher Scientific, Cat #11360-070), 0.1% Beta-mercaptoethanol (Thermo Fisher Scientific, Cat #21985-023)]. PBMCs previously isolated and cryopreserved from 2 Leukopak donors were thawed and Pan T cells were isolated (as described earlier). Isolated T cells were labelled with 5 μM Cell Trace Violet (CTV) (Thermo Fisher Scientific, Cat #C34557) following the manufacturer's protocol and were co-cultured with target cells at an E:T ratio of 1:3. A dilution series of CD3med TSP1, CD3hi TSP1, CD3hi BSP1, CD3hi TSP1C, and blinatumomab ranging from 2.5 nM-0.0006 nM was added to cells and the plates were incubated in a 5% CO2, 37° C. incubator for 96 hrs. […]

[4] = test system: Jurkat NFAT luciferized (JNL) cells with THP-1 cells; test: Anti-CD3 NFAT signalling assay, JNL + THP-1 cells (Example 36); format: cell-based, human
Method: Jurkat reporter gene assay (RGA) for the nuclear factor of activated T-cells (NFAT) pathway was performed using Jurkat NFAT luciferized (JNL) cells and THP-1 cells (ATCC, TIB202). THP-1 cells express FcγRI, FcγRII, and FcγRIII. Cells were co-incubated for 6 hours at 37° C., 5% CO2 at a 5:1 effector to tumor ratio with each sample at the various concentrations depicted. An equal volume of ONE-Glo™ reagent (Promega, E6110) was added to the culture volume. Plate was shaken for 2 minutes, then incubated for an additional 8 minutes protected from light. For JNL+ THP+IFNg experiment, THP-1 cells were pre-treated with 100 u/mL IFNg for 48 hours at 37° C., 5% CO2 before co-culture. IFNg stimulation increases FcγRI expression. Luciferase activity was quantitated on the EnVision plate reader (PerkinElmer). Data was analyzed and fit to a 5 parameter-logistic curve using GraphPad Prism.

[5] = THP-1 cells preincubated with IFNg (100 u/mL, 48 hours)

human FcγR1A, sequence (P12314 16-374): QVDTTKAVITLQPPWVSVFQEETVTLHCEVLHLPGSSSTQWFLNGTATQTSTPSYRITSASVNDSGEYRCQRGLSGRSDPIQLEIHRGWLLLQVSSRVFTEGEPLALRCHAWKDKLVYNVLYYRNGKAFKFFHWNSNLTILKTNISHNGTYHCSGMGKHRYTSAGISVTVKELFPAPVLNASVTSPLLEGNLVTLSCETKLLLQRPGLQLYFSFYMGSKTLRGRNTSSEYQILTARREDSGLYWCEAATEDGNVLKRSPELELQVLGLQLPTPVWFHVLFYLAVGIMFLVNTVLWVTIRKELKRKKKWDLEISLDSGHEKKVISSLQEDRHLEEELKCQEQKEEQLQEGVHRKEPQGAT

Maximum response at 100 nM hFcgammaRIA (RU) (human FcγR1A) | Substance | Melting temperature (Tm) of CH2 domain [1] [°C] | (%) higher molecular weight [2] [%] | T cell proliferation (% proliferated CD3+ T cells) [3] | NFAT activity (T-cell activation) [4, 5] | NFAT activity (T-cell activation) ([4]; without IFNg, JNL:THP-1 5:1, 6 hours)
18 | LALAPG-IgG1: anti-CD3 IgG1 with L234A/L235A/P329G | 70 | 4.2 |  |  | 
15 | LALAGA-IgG1: anti-CD3 IgG1 with L234A/L235A/G237A | 70 | 2.9 |  |  | 
 | blinatumomab: bispecific T cell engager, or BiTE, that binds to both CD19 and CD3 but lacks an Fc domain [reference compound] |  |  | most potent T cell proliferation |  | 
 | DAPA-IgG1: anti-CD3 IgG1 with D265A/P329A; previously described silencing motif [reference compound] | 65 | 3.9 |  | some activity remaining | comparable T-cell activation with the exception of DAPA
 | LALAPA-IgG1: anti-CD3 IgG1 with L234A/L235A/P329A | 70 | 1.8 |  | some activity remaining | 
